Test results as given in the supplement of paper PMC9112550, “Optimization of the antimicrobial peptide Bac7 by deep mutational scanning” (BMC Biology, 2022).

Each sequence was assayed on Escherichia coli TOP10 (assay: shrunken log2 fold change of peptide-encoding DNA abundance (4.5 h post-induction vs induction); higher = less antimicrobial activity (less host growth inhibition)). Conditions: time post-induction: 4.5 h; library: site-saturation at positions 5, 18, 19, 20.
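Further: peptides expressed intracellularly from a pBAD plasmid library in pooled LB shake-flask culture, induced with 0.3% L-arabinose, DNA abundance read by NGS, three biological replicates, DESeq2 with apeglm shrinkage.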

RRIRARPPRLPRPRPRPRLFPRP was tested. Which “shrunken log2 fold change” value did it give?
Its value is 0.465.

With RRIRARPPRLPRPRPRPRLQPRP as the sequence, how does the “shrunken log2 fold change” value read?
The value was 0.637.

Which “shrunken log2 fold change” value does the source give for RRIRARPPRLPRPRPRPRMHPRP here?
The value was 0.324.

Which “shrunken log2 fold change” value does the source give for RRIRARPPRLPRPRPRPRMRPRP here?
The value was 0.954.

How did the “shrunken log2 fold change” value turn out when RRIRARPPRLPRPRPRPRNRPRP was run?
The value was 0.0657.

How did the “shrunken log2 fold change” value turn out when RRIRARPPRLPRPRPRPRPNPRP was run?
Its value is 0.493.

For RRIRARPPRLPRPRPRPRQFPRP, which “shrunken log2 fold change” value is on record?
Its value is 0.32.

With RRIRARPPRLPRPRPRPRQPPRP as the sequence, how does the “shrunken log2 fold change” value read?
The value was 0.75.

RRIRARPPRLPRPRPRPRQRPRP was tested. Which “shrunken log2 fold change” value did it give?
Its value is 1.13.

For RRIRARPPRLPRPRPRPRQYPRP, which “shrunken log2 fold change” value is on record?
Its value is -0.294.

RRIRARPPRLPRPRPRPRRYPRP was tested. Which “shrunken log2 fold change” value did it give?
Its value is 0.255.

With RRIRARPPRLPRPRPRPRSHPRP as the sequence, how does the “shrunken log2 fold change” value read?
The value was 0.223.

With RRIRARPPRLPRPRPRPRTFPRP as the sequence, how does the “shrunken log2 fold change” value read?
Its value is 0.287.

How did the “shrunken log2 fold change” value turn out when RRIRARPPRLPRPRPRPRTHPRP was run?
The value was 0.259.

RRIRARPPRLPRPRPRPRTQPRP was tested. Which “shrunken log2 fold change” value did it give?
Its value is 0.634.

With RRIRARPPRLPRPRPRPRVMPRP as the sequence, how does the “shrunken log2 fold change” value read?
The value was 0.197.

How did the “shrunken log2 fold change” value turn out when RRIRARPPRLPRPRPRPRVWPRP was run?
The value was 0.827.

With RRIRARPPRLPRPRPRPRWIPRP as the sequence, how does the “shrunken log2 fold change” value read?
Its value is 0.239.

For RRIRARPPRLPRPRPRPRWRPRP, which “shrunken log2 fold change” value is on record?
Its value is 0.934.

Which “shrunken log2 fold change” value does the source give for RRIRARPPRLPRPRPRPSATPRP here?
The value was 1.26.

For RRIRARPPRLPRPRPRPSCQPRP, which “shrunken log2 fold change” value is on record?
The value was 0.133.

For RRIRARPPRLPRPRPRPSDMPRP, which “shrunken log2 fold change” value is on record?
Its value is 0.16.

Which “shrunken log2 fold change” value does the source give for RRIRARPPRLPRPRPRPSEFPRP here?
Its value is 0.00109.

For RRIRARPPRLPRPRPRPSEKPRP, which “shrunken log2 fold change” value is on record?
The value was -0.312.

With RRIRARPPRLPRPRPRPSFTPRP as the sequence, how does the “shrunken log2 fold change” value read?
Its value is 0.582.

How did the “shrunken log2 fold change” value turn out when RRIRARPPRLPRPRPRPSGCPRP was run?
Its value is 0.0438.

Which “shrunken log2 fold change” value does the source give for RRIRARPPRLPRPRPRPSGKPRP here?
The value was -0.0838.

RRIRARPPRLPRPRPRPSGMPRP was tested. Which “shrunken log2 fold change” value did it give?
The value was 0.197.

Which “shrunken log2 fold change” value does the source give for RRIRARPPRLPRPRPRPSGNPRP here?
The value was 0.0499.

Which “shrunken log2 fold change” value does the source give for RRIRARPPRLPRPRPRPSHYPRP here?
The value was -0.0225.

Which “shrunken log2 fold change” value does the source give for RRIRARPPRLPRPRPRPSIEPRP here?
Its value is 0.0128.

How did the “shrunken log2 fold change” value turn out when RRIRARPPRLPRPRPRPSITPRP was run?
The value was 0.107.

Which “shrunken log2 fold change” value does the source give for RRIRARPPRLPRPRPRPSKRPRP here?
Its value is 0.0155.

Which “shrunken log2 fold change” value does the source give for RRIRARPPRLPRPRPRPSLIPRP here?
The value was -0.0273.

With RRIRARPPRLPRPRPRPSLKPRP as the sequence, how does the “shrunken log2 fold change” value read?
Its value is -0.0764.

Which “shrunken log2 fold change” value does the source give for RRIRARPPRLPRPRPRPSLRPRP here?
Its value is 0.109.

For RRIRARPPRLPRPRPRPSLTPRP, which “shrunken log2 fold change” value is on record?
Its value is 0.172.

With RRIRARPPRLPRPRPRPSNTPRP as the sequence, how does the “shrunken log2 fold change” value read?
The value was -0.31.

Which “shrunken log2 fold change” value does the source give for RRIRARPPRLPRPRPRPSRAPRP here?
The value was 0.555.

Which “shrunken log2 fold change” value does the source give for RRIRARPPRLPRPRPRPSRGPRP here?
Its value is 0.497.

How did the “shrunken log2 fold change” value turn out when RRIRARPPRLPRPRPRPSRHPRP was run?
Its value is -0.00582.

For RRIRARPPRLPRPRPRPSRMPRP, which “shrunken log2 fold change” value is on record?
The value was 0.362.

For RRIRARPPRLPRPRPRPSRNPRP, which “shrunken log2 fold change” value is on record?
The value was -0.0178.

RRIRARPPRLPRPRPRPSRTPRP was tested. Which “shrunken log2 fold change” value did it give?
The value was 0.471.

With RRIRARPPRLPRPRPRPSRYPRP as the sequence, how does the “shrunken log2 fold change” value read?
The value was 0.0768.

Which “shrunken log2 fold change” value does the source give for RRIRARPPRLPRPRPRPSSAPRP here?
Its value is 1.29.

How did the “shrunken log2 fold change” value turn out when RRIRARPPRLPRPRPRPSSTPRP was run?
The value was -0.0285.

Which “shrunken log2 fold change” value does the source give for RRIRARPPRLPRPRPRPSVEPRP here?
The value was 0.49.

With RRIRARPPRLPRPRPRPSWTPRP as the sequence, how does the “shrunken log2 fold change” value read?
Its value is -0.392.

RRIRARPPRLPRPRPRPSYLPRP was tested. Which “shrunken log2 fold change” value did it give?
The value was -0.716.

Which “shrunken log2 fold change” value does the source give for RRIRARPPRLPRPRPRPSYRPRP here?
Its value is -0.228.

For RRIRARPPRLPRPRPRPSYSPRP, which “shrunken log2 fold change” value is on record?
The value was -0.349.

For RRIRARPPRLPRPRPRPTAQPRP, which “shrunken log2 fold change” value is on record?
Its value is 0.936.

How did the “shrunken log2 fold change” value turn out when RRIRARPPRLPRPRPRPTCAPRP was run?
Its value is 0.863.

RRIRARPPRLPRPRPRPTCLPRP was tested. Which “shrunken log2 fold change” value did it give?
Its value is 0.0548.

For RRIRARPPRLPRPRPRPTCMPRP, which “shrunken log2 fold change” value is on record?
The value was 0.407.

For RRIRARPPRLPRPRPRPTDKPRP, which “shrunken log2 fold change” value is on record?
Its value is 0.391.

With RRIRARPPRLPRPRPRPTDLPRP as the sequence, how does the “shrunken log2 fold change” value read?
Its value is 0.274.

Which “shrunken log2 fold change” value does the source give for RRIRARPPRLPRPRPRPTEYPRP here?
Its value is -0.103.

How did the “shrunken log2 fold change” value turn out when RRIRARPPRLPRPRPRPTFWPRP was run?
Its value is 0.445.

Which “shrunken log2 fold change” value does the source give for RRIRARPPRLPRPRPRPTIRPRP here?
The value was 0.109.

With RRIRARPPRLPRPRPRPTISPRP as the sequence, how does the “shrunken log2 fold change” value read?
The value was 0.0389.

Which “shrunken log2 fold change” value does the source give for RRIRARPPRLPRPRPRPTKEPRP here?
Its value is 0.0091.

How did the “shrunken log2 fold change” value turn out when RRIRARPPRLPRPRPRPTNLPRP was run?
Its value is 0.0653.

How did the “shrunken log2 fold change” value turn out when RRIRARPPRLPRPRPRPTNMPRP was run?
The value was -0.275.

RRIRARPPRLPRPRPRPTPIPRP was tested. Which “shrunken log2 fold change” value did it give?
The value was 0.747.

How did the “shrunken log2 fold change” value turn out when RRIRARPPRLPRPRPRPTPSPRP was run?
Its value is 0.791.

With RRIRARPPRLPRPRPRPTPVPRP as the sequence, how does the “shrunken log2 fold change” value read?
Its value is 0.696.

Which “shrunken log2 fold change” value does the source give for RRIRARPPRLPRPRPRPTRCPRP here?
Its value is 1.1.

With RRIRARPPRLPRPRPRPTRDPRP as the sequence, how does the “shrunken log2 fold change” value read?
The value was 0.759.

With RRIRARPPRLPRPRPRPTRQPRP as the sequence, how does the “shrunken log2 fold change” value read?
The value was 0.982.

With RRIRARPPRLPRPRPRPTRWPRP as the sequence, how does the “shrunken log2 fold change” value read?
The value was 0.539.

RRIRARPPRLPRPRPRPTSLPRP was tested. Which “shrunken log2 fold change” value did it give?
Its value is 0.225.

RRIRARPPRLPRPRPRPTTRPRP was tested. Which “shrunken log2 fold change” value did it give?
Its value is 0.61.

With RRIRARPPRLPRPRPRPTTTPRP as the sequence, how does the “shrunken log2 fold change” value read?
The value was 0.264.
